T1: human IL2Rα Fc fusion protein (human, UniProt P01589 22-213, limits assumed)
T1 construct: also called CD25; not shown: Fc part
T1 sequence (looked up): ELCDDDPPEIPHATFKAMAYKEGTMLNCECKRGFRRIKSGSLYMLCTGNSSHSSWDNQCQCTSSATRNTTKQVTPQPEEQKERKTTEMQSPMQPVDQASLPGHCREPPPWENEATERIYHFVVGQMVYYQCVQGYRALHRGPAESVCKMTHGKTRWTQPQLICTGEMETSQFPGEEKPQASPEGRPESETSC

T2: human IL2Rβ Fc fusion protein (human, UniProt P14784 27-239)
T2 construct: also called ILR2β; CD122; not shown: Fc part
T2 sequence (looked up): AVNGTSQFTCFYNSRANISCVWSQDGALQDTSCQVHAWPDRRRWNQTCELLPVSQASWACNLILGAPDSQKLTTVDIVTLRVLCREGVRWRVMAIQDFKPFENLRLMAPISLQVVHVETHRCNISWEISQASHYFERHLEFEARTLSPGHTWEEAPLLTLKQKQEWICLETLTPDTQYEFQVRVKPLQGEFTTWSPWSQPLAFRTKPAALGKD


Experiments:
[1] = target: T1, human IL2Rα Fc fusion protein; test: SPR (Biacore T200), receptor captured on Protein A chip, IL2 at 100 nM and 20 nM
Description: The assay was run with Biacore T200 control software version 2.0. For each cycle, 1 μg/mL of human IL2Rβ or IL2Rα was captured for 60 seconds at flow rate of 10 μL/min on flow cell 2 in 1× HBSP buffer on Protein A sensor chip. 100 nM and 20 nM of HIS tag purified engineered IL2 mutant was injected onto both reference flow cell 1 and IL2Rβ or IL2Rα captured flow cell 2 for 150 seconds at flow rate of 30 μL/min followed by washing for 300 seconds. The flow cells were then regenerated with Glycine pH 2 for 60 seconds at a flow rate of 30 μL/mins. The kinetics data was analyzed with Biacore T200 evaluation software 3000. The specific binding response unit was derived from subtraction of binding to reference flow cell 1 from target flow cell 2.

[2] = target: T1, human IL2Rα Fc fusion protein; test: ELISA, single concentration, anti-flag detection, E. coli-produced clone
Description: (§1) Supernatants containing engineered IL2 mutants were assessed with sandwich ELISA assay to screen for IL2Rα binding. Briefly, 96-well plate was immobilized with human Fc and human IL2Rα, respectively, at a final concentration of 2 μg/mL in 1× PBS in total volume of 50 μL per well. The plate was incubated overnight at 4° C. followed by blocking with 200 μL of superblock per well for 1 hour. 100 μl of supernatant was added to both Fc and IL2Rα immobilized wells and incubated for 1 hour with shaking. The engineered IL2 mutant binding was detected by adding 50 μL of anti-Flag HRP diluted at 1:5000 in 1× PBST. In between each step, the plate was washed three times with 1× PBST in a plate washer. The plate was then developed with 50 μL of TMB substrate for five minutes and stopped by adding 50 μL of 2N sulfuric acid. The plate was read at OD450 nm using a Biotek plate reader and the binding and selectivity was analyzed.
as §1, with “Single clones were next screened for IL2Rβ binding. IL2Rβ binding screening ELISA was developed for the identification of individual” for “Supernatants containing”, “mutant.” for “mutants were assessed with sandwich ELISA assay to screen for IL2Rα binding.”, “IL2Rβ,” for “IL2Rα,”, “IL2Rβ” for “IL2Rα”
(§2) To further triage, the engineered IL2 clones with unique sequences were produced in E. coli. In short, the glycerol stock of each engineered agonist clone was inoculated into TB medium for overnight growth. The next day, cells from the overnight culture were inoculated into TB medium and grown to a cell density of OD₆₀₀ between 0.6-0.8. IPTG was added to a final concentration of 1 mM to induce the expression during culture at 30° C. overnight. The supernatant was collected by centrifugation.

[3] = target: T2, human IL2Rβ Fc fusion protein; test: as above
Description: as §1
as §1, with “Single clones were next screened for IL2Rβ binding. IL2Rβ binding screening ELISA was developed for the identification of individual” for “Supernatants containing”, “mutant.” for “mutants were assessed with sandwich ELISA assay to screen for IL2Rα binding.”, “IL2Rβ,” for “IL2Rα,”, “IL2Rβ” for “IL2Rα”
as §2

| Binder | Kd [1] [nM] | OD450 nm [2] [OD450] | OD450 nm [3] [OD450] |
| --- | --- | --- | --- |
| EP564 (clone 2021EP22-E11), E. coli-produced (ligand) APASSSTKKTQLQLEHLLLDLQMILNGINNYKNPKLTRMLTFKFYMPKKATELKHLQCLEEELKPLEEVLNLAQSKNFHLRFKALIIEINFIVQLLKGSETTFMCEYADETATIVEFLNRWITFSQSIISTLT | 18 | 0.086 |  |
| EP573 (clone 2021EP16-E02), E. coli-produced (ligand) APASSSTKKTQLQLEHLLLDLQMILNGINNYKNPKLTRMLTFKFYMPKKATELKHLQCLEEELKPLEEVLNLAQSKNFHLNRTDLVGDVNATIKALKGSETTFMCEYADETATIVEFLNRWITFSQSIISTLT | 55.1 | 1.58 | 0.07 |
| EP576 (clone 2021EP21-C10), E. coli-produced (ligand) APASSSTKKTQLQLEHLLLDLQMILNGINNYKNPKLTRMLTFKFYMPKKATELKHLQCLEEELKPLEEVLNLAQSKNFHLLPRNKISKTKVMVHELKGSETTFMCEYADETATIVEFLNRWITFSQSIISTLT | 143 | 0.361 | 1.12 |
| EP574 (clone 2021EP22-B04), E. coli-produced (ligand) APASSSTKKTQLQLEHLLLDLQMILNGINNYKNPKLTRMLTFKFYMPKKATELKHLQCLEEELKPLEEVLNLAQSKNFHLFTKDLTSTMQILVLQLKGSETTFMCEYADETATIVEFLNRWITFSQSIISTLT | 207 | 0.171 |  |
| EP570 (clone 2021EP21-E03), E. coli-produced (ligand) APASSSTKKTQLQLEHLLLDLQMILNGINNYKNPKLTRMLTFKFYMPKKATELKHLQCLEEELKPLEEVLNLAQSKNFHLSSSGLLGDVWVIVLDLKGSETTFMCEYADETATIVEFLNRWITFSQSIISTLT | 21.3 | 0.528 |  |
| EP566 (clone 2021EP22-H09), E. coli-produced (ligand) APASSSTKKTQLQLEHLLLDLQMILNGINNYKNPKLTRMLTFKFYMPKKATELKHLQCLEEELKPLEEVLNLAQSKNFHLRLTHLRNVIGVILVQLKGSETTFMCEYADETATIVEFLNRWITFSQSIISTLT | 523 | 0.251 |  |
| EP565 (clone 2021EP22-F10), E. coli-produced (ligand) APASSSTKKTQLQLEHLLLDLQMILNGINNYKNPKLTRMLTFKFYMPKKATELKHLQCLEEELKPLEEVLNLAQSKNFHLRSRQLISNMNGIILKLKGSETTFMCEYADETATIVEFLNRWITFSQSIISTLT | 142 | 0.105 |  |
| EP575 (clone 2021EP16-D09), E. coli-produced (ligand) APASSSTKKTQLQLEHLLLDLQMILNGINNYKNPKLTRMLTFKFYMPKKATELKHLQCLEEELKPLEEVLNLAQSKNFHLRNKGILGDISNIVLALKGSETTFMCEYADETATIVEFLNRWITFSQSIISTLT | 98.2 | 1.25 | 0.057 |
| EP572 (clone 2021EP21-C03), E. coli-produced (ligand) APASSSTKKTQLQLEHLLLDLQMILNGINNYKNPKLTRMLTFKFYMPKKATELKHLQCLEEELKPLEEVLNLAQSKNFHLRARDIVRNAKVGVQELKGSETTFMCEYADETATIVEFLNRWITFSQSIISTLT | 75.5 | 0.079 | 0.143 |
| EP569 (clone 2021EP22-E03), E. coli-produced (ligand) APASSSTKKTQLQLEHLLLDLQMILNGINNYKNPKLTRMLTFKFYMPKKATELKHLQCLEEELKPLEEVLNLAQSKNFHLRRKESINHMIVVFPVLKGSETTFMCEYADETATIVEFLNRWITFSQSIISTLT | 47.8 | 0.433 |  |
| EP571 (clone 2021EP22-H02), E. coli-produced (ligand) APASSSTKKTQLQLEHLLLDLQMILNGINNYKNPKLTRMLTFKFYMPKKATELKHLQCLEEELKPLEEVLNLAQSKNFHLRPSELMATMRVPVQALKGSETTFMCEYADETATIVEFLNRWITFSQSIISTLT | 117 | 0.423 | 0.653 |

Continued, values first:

| Kd [1] [nM] | OD450 nm [2] [OD450] | OD450 nm [3] [OD450] | Binder |
| --- | --- | --- | --- |
|  |  | 0.611 | EP579 (clone 2021EP16-E11), E. coli-produced (ligand) APASSSTKKTQLQLEHLLLDLQMILNGINNYKNPKLTRMLTFKFYMPKKATELKHLQCLEEELKPLEEVLNLAQSKNFHLRPSYIVSYTNVFPLVLKGSETTFMCEYADETATIVEFLNRWITFSQSIISTLT |
| 9340 | 0.857 |  | EP578 (clone 2021EP16-H02), E. coli-produced (ligand) APASSSTKKTQLQLEHLLLDLQMILNGINNYKNPKLTRMLTFKFYMPKKATELKHLQCLEEELKPLEEVLNLAQSKNFHLTTRDVVMTMARIDLELKGSETTFMCEYADETATIVEFLNRWITFSQSIISTLT |
| 151 | 1.08 | 0.337 | EP582 (clone 2021EP16-G10), E. coli-produced (ligand) APASSSTKKTQLQLEHLLLDLQMILNGINNYKNPKLTRMLTFKFYMPKKATELKHLQCLEEELKPLEEVLNLAQSKNFHLTHRDVISDVNVLALELKGSETTFMCEYADETATIVEFLNRWITFSQSIISTLT |
|  |  | 0.505 | EP586 (clone 2021EP16-E07), E. coli-produced (ligand) APASSSTKKTQLQLEHLLLDLQMILNGINNYKNPKLTRMLTFKFYMPKKATELKHLQCLEEELKPLEEVLNLAQSKNFHLRPRDSRRLISVIVFRLKGSETTFMCEYADETATIVEFLNRWITFSQSIISTLT |
| 106 | 0.88 | 0.127 | EP581 (clone 2021EP16-C10), E. coli-produced (ligand) APASSSTKKTQLQLEHLLLDLQMILNGINNYKNPKLTRMLTFKFYMPKKATELKHLQCLEEELKPLEEVLNLAQSKNFHLRSREVVSRIDAIILELKGSETTFMCEYADETATIVEFLNRWITFSQSIISTLT |
|  | 0.749 | 0.323 | EP583 (clone 2021EP16-H10), E. coli-produced (ligand) APASSSTKKTQLQLEHLLLDLQMILNGINNYKNPKLTRMLTFKFYMPKKATELKHLQCLEEELKPLEEVLNLAQSKNFHLSAIDLMSSVKVVVWKLKGSETTFMCEYADETATIVEFLNRWITFSQSIISTLT |
| 4260 | 0.614 | 0.583 | EP585 (clone 2021EP16-C03), E. coli-produced (ligand) APASSSTKKTQLQLEHLLLDLQMILNGINNYKNPKLTRMLTFKFYMPKKATELKHLQCLEEELKPLEEVLNLAQSKNFHLSPPDLIANMAVYFVELKGSETTFMCEYADETATIVEFLNRWITFSQSIISTLT |
| 956 | 0.771 | 0.149 | EP577 (clone 2021EP16-E05), E. coli-produced (ligand) APASSSTKKTQLQLEHLLLDLQMILNGINNYKNPKLTRMLTFKFYMPKKATELKHLQCLEEELKPLEEVLNLAQSKNFHLKAIAFISDLKVRVLDLKGSETTFMCEYADETATIVEFLNRWITFSQSIISTLT |

From patent US20250326813A1 (ELPIS BIOPHARMACEUTICALS, published 2025)
